Here are results for one molecule from patent US20210079400A1 (CZ BIOHUB SF, published 2021).

For the experiment, the target named is T1, BMPR2 (human, on breast cancer cells) (human, UniProt Q13873 27-1038).
T1 construct: whole, on cells; The PDX cells are described as human breast tumor cells; also called BMP Receptor 2
T1 sequence (looked up): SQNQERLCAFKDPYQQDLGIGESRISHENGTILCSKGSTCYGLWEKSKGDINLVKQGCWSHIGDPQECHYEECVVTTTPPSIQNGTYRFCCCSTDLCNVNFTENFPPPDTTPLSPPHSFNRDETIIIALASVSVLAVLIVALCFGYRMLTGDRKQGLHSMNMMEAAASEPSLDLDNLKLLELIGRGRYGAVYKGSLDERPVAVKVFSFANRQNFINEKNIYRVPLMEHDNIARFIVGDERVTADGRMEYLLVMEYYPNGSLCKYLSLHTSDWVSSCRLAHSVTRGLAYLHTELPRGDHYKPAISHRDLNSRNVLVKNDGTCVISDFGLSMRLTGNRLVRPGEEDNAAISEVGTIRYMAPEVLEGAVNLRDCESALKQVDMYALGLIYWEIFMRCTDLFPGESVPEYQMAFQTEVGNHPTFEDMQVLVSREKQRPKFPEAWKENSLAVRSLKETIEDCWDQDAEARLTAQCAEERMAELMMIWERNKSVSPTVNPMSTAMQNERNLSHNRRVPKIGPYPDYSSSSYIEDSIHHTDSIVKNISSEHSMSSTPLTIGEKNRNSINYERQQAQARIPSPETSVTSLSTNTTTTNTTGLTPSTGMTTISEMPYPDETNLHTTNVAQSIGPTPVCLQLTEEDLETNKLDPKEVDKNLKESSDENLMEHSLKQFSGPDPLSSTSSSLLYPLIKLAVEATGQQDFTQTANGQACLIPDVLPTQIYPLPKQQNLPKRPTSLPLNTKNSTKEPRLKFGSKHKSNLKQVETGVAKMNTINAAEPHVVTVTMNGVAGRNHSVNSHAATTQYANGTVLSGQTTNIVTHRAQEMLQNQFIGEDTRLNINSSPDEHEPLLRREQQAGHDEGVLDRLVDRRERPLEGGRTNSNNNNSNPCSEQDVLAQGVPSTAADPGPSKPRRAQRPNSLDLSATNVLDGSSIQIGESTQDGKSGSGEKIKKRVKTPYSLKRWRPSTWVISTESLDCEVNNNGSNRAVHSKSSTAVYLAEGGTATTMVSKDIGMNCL
The experiment in a line: Proximity Ligation on sorted breast cancer PDX cells. The source says: Next, we examined the interaction of LEFTY-BMPR2 and BMP7-BMPR2 in different subpopulations of breast cancer cells. Tumor cells were isolated from 3 established breast cancer PDXs using flow cytometry. These models were characterized to follow the cancer stem cell paradigm. The cells were sorted based on EpCAM and CD49f cell surface markers. Different protein-protein interactions were quantified by Proximity Ligation and the cells were also simultaneously stained for pSMAD2 or pSMAD5. As shown in FIGS. 14A-14D, in the tumorigenic population the LEFTY-BMPR2 interaction is predominant, whereas the BMP7-BMPR2 interaction is predominant in non-tumorigenic population.

B1: BMP7 (human, endogenous in breast cancer PDX cells) (ligand, UniProt P18075 293-431, looked up)
chain: STGSKQRSQNRSKTPKNQEALRMANVAENSSSDQRQACKKHELYVSFRDLGWQDWIIAPEGYAAYYCEGECAFPLNSYMNATNHAIVQTLVHFINPETVPKPCCAPTQLNAISVLYFDDSSNVILKKYRNMVVRACGCH
Regarding B1, the binding result is given as “binds”.
